Test results published in paper PMC10397247.
Blank lines part the entries; values can stand above or below the binder they belong to.

How the values were obtained:
[1] = target: T1, O1-bH; assay: two-hybrid library CCNG1;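 further: natural log of median RNA to DNA barcode read ratio; higher means stronger binding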
T1 chain: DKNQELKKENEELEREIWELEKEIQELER

[2] = target: T2, O10-bH; assay: two-hybrid library CCNG1;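 further: natural log of median RNA to DNA barcode read ratio; higher means stronger binding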
T2 chain: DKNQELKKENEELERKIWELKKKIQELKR

[3] = target: T3, O11-bH; assay: two-hybrid library CCNG1;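 further: natural log of median RNA to DNA barcode read ratio; higher means stronger binding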
T3 chain: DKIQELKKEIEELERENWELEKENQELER

[4] = target: T4, O12-bH; assay: two-hybrid library CCNG1;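 further: natural log of median RNA to DNA barcode read ratio; higher means stronger binding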
T4 chain: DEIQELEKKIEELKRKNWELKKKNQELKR

[5] = target: T5, O13-bH; assay: two-hybrid library CCNG1
T5 chain: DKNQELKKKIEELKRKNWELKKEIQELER

[6] = target: T6, O14-bH; assay: two-hybrid library CCNG1
T6 chain: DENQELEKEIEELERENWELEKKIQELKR

[7] = target: T7, O15-bH; assay: two-hybrid library CCNG1
T7 chain: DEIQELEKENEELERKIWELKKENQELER

[8] = target: T8, O16-bH; assay: two-hybrid library CCNG1
T8 chain: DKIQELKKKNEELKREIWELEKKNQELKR

[9] = target: T9, O2-bH; assay: two-hybrid library CCNG1
T9 chain: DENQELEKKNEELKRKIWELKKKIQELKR

[10] = target: T10, O3-bH; assay: two-hybrid library CCNG1
T10 chain: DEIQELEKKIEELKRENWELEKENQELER

[11] = target: T11, O4-bH; assay: two-hybrid library CCNG1
T11 chain: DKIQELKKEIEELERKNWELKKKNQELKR

[12] = target: T12, O5-bH; assay: two-hybrid library CCNG1
T12 chain: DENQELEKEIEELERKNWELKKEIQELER

[13] = target: T13, O6-bH; assay: two-hybrid library CCNG1
T13 chain: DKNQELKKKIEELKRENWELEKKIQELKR

[14] = target: T14, O7-bH; assay: two-hybrid library CCNG1
T14 chain: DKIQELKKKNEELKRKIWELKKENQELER

[15] = target: T15, O8-bH; assay: two-hybrid library CCNG1
T15 chain: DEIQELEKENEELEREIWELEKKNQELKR

[16] = target: T16, O9-bH; assay: two-hybrid library CCNG1
T16 chain: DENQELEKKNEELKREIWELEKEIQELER

[17] = target: T17, Core_IINI-es_KEEE; assay: two-hybrid library CCmax; conditions: mean of both orientations
T17 chain: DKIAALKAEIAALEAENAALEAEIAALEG

[18] = target: T18, P4SN; assay: two-hybrid library CCNG1; conditions: mean of both orientations
T18 chain: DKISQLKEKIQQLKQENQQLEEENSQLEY

[19] = target: T18, P4SN; assay: two-hybrid library CCmax
[20] = target: T19, 4H2750-AA; assay: two-hybrid library CCmax
T19 chain: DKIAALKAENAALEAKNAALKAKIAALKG

[21] = target: T20, 4H2898-AA; assay: two-hybrid library CCmax; conditions: mean of both orientations
T20 chain: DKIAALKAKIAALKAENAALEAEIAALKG

[22] = target: T21, 4H3020-AA; assay: two-hybrid library CCmax; conditions: mean of both orientations
T21 chain: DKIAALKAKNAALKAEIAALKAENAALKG

[23] = target: T22, 4H3365-AA; assay: two-hybrid library CCmax; conditions: mean of both orientations
T22 chain: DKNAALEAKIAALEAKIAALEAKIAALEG

[24] = target: T23, 4H355-AA; assay: two-hybrid library CCmax; conditions: mean of both orientations
T23 chain: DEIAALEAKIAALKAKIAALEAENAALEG

[25] = target: T24, 4H3651-AA; assay: two-hybrid library CCmax; conditions: mean of both orientations
T24 chain: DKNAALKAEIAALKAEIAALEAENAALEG

[26] = target: T25, 4H3705-AA; assay: two-hybrid library CCmax; conditions: mean of both orientations
T25 chain: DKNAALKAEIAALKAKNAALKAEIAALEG

[27] = target: T26, 4H3782-AA; assay: two-hybrid library CCmax; conditions: mean of both orientations
T26 chain: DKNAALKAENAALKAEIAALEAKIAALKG

[28] = target: T27, 4H465-AA; assay: two-hybrid library CCmax; conditions: mean of both orientations
T27 chain: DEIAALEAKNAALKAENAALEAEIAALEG

[29] = target: T28, 4H486-AA; assay: two-hybrid library CCmax; conditions: mean of both orientations
T28 chain: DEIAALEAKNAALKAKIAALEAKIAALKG

[30] = target: T29, 4H535-AA; assay: two-hybrid library CCmax; conditions: mean of both orientations
T29 chain: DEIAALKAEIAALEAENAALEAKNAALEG

[31] = target: T30, 4H58-AA; assay: two-hybrid library CCmax; conditions: mean of both orientations
T30 chain: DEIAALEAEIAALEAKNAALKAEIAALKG

[32] = target: T31, 4H895-AA; assay: two-hybrid library CCmax; conditions: mean of both orientations
T31 chain: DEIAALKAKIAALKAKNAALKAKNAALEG

[33] = target: T32, 4H_APH; assay: two-hybrid library CCmax; conditions: mean of both orientations
T32 chain: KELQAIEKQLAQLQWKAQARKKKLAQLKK

[34] = target: T33, 4H_BCR; assay: two-hybrid library CCmax; conditions: mean of both orientations
T33 chain: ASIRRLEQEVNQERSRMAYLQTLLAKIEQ

[35] = target: 4H_GCN4; assay: two-hybrid library CCmax; conditions: mean of both orientations
Sequence of 4H_GCN4 (chain, as listed by the source): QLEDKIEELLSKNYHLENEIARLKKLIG

[36] = target: GCN2_T; assay: two-hybrid library CCmax
[37] = target: T34, P1-AA-1HGe-A; assay: two-hybrid library CCmax; conditions: mean of both orientations
T34 chain: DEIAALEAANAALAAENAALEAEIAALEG

[38] = target: T35, P1-AA-1HGe-D; assay: two-hybrid library CCmax; conditions: mean of both orientations
T35 chain: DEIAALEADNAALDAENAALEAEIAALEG

[39] = target: T36, P1-AA-1HGe-H; assay: two-hybrid library CCmax
T36 chain: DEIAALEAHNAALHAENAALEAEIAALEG

[40] = target: T37, P1-AA-1HGe-M; assay: two-hybrid library CCmax; conditions: mean of both orientations
T37 chain: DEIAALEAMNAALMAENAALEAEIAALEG

[41] = target: T38, P1-AA-1HGe-Q; assay: two-hybrid library CCmax; conditions: mean of both orientations
T38 chain: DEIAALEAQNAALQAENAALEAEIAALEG

[42] = target: T39, P1-AA-1HGe-R; assay: two-hybrid library CCmax; conditions: mean of both orientations
T39 chain: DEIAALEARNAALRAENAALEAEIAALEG

[43] = target: T40, P1-AA-1HGe-S; assay: two-hybrid library CCmax; conditions: mean of both orientations
T40 chain: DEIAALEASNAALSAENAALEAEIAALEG

[44] = target: T41, P1-AA-1HGe-T; assay: two-hybrid library CCmax; conditions: mean of both orientations
T41 chain: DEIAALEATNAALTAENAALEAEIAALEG

[45] = target: T42, P1-AA-1HGe-W; assay: two-hybrid library CCmax; conditions: mean of both orientations
T42 chain: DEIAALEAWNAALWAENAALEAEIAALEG

[46] = target: T43, P1-AA-1HGe-Y; assay: two-hybrid library CCmax; conditions: mean of both orientations
T43 chain: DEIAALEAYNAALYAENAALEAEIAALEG

[47] = target: T44, P1-AA; assay: two-hybrid library CCmax; conditions: mean of both orientations
T44 chain: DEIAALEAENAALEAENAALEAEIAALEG

[48] = target: T45, Core_NNNI-es_KEKE; assay: two-hybrid library CCmax; conditions: mean of both orientations
T45 chain: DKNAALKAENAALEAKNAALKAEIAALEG

[49] = target: T46, 4H1347-bA; assay: two-hybrid library CCNG1
T46 chain: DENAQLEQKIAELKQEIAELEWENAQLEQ

[50] = target: T47, 4H145-bA; assay: two-hybrid library CCNG1
T47 chain: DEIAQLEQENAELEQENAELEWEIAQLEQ

[51] = target: T48, 4H2619-bA; assay: two-hybrid library CCNG1
T48 chain: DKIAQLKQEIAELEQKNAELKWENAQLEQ

[52] = target: T49, 4H2691-bA; assay: two-hybrid library CCNG1
T49 chain: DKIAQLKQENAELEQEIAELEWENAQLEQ

[53] = target: T50, 4H3070-bA; assay: two-hybrid library CCNG1
T50 chain: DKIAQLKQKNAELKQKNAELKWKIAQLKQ

[54] = target: T51, 4H342-bA; assay: two-hybrid library CCNG1
T51 chain: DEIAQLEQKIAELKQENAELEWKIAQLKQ

[55] = target: T52, 4H3632-bA; assay: two-hybrid library CCNG1
T52 chain: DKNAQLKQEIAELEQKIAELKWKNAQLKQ

[56] = target: T53, 4H496-bA; assay: two-hybrid library CCNG1
T53 chain: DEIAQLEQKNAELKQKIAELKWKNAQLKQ

[57] = target: T54, Core_INNN-es_KKEE; assay: two-hybrid library CCmax; conditions: mean of both orientations
T54 chain: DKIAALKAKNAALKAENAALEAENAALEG

[58] = target: T55, P10mS; assay: two-hybrid library CCNG1
T55 chain: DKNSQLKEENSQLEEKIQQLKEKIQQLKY

[59] = target: T56, P11mS; assay: two-hybrid library CCNG1
T56 chain: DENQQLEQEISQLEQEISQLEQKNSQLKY

[60] = target: T57, P12mS; assay: two-hybrid library CCNG1
T57 chain: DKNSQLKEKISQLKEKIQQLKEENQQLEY

[61] = target: T58, P3mS; assay: two-hybrid library CCNG1
T58 chain: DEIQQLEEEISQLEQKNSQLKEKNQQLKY

[62] = target: T59, P4mS; assay: two-hybrid library CCNG1
T59 chain: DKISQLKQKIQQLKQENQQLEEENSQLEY

[63] = target: T60, P5mS; assay: two-hybrid library CCNG1
T60 chain: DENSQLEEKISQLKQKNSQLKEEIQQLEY

[64] = target: T61, P6mS; assay: two-hybrid library CCNG1
T61 chain: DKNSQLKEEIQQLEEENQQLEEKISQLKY

[65] = target: T62, P7mS; assay: two-hybrid library CCNG1
T62 chain: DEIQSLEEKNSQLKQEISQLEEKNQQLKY

[66] = target: T63, P8mS; assay: two-hybrid library CCNG1
T63 chain: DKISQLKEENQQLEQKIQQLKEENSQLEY

[67] = target: T64, P9mS; assay: two-hybrid library CCNG1
T64 chain: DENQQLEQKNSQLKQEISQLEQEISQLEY

[68] = target: T65, Core_NINN-es_KEKE; assay: two-hybrid library CCmax; conditions: mean of both orientations
T65 chain: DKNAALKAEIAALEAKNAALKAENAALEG

Binder: DKNQELKKENEELEREIWELEKEIQELER [O1-bH]
interaction score [1]: -0.259 | interaction score [2]: 0.782 | interaction score [3]: -0.522 | interaction score [4]: -0.434 | interaction score [5]: 0.467 | interaction score [6]: -0.549 | interaction score [7]: -0.695 | interaction score [8]: -0.655 | interaction score [9]: -0.214 | interaction score [10]: -1.49 | interaction score [11]: -1.15 | interaction score [12]: -1.92 | interaction score [13]: -0.62 | interaction score [14]: -0.877 | interaction score [15]: -2.35 | interaction score [16]: -2.31

Binder: DEIQQLEEEISQLEQKNSELKEKNQELKY [P3SN]
interaction score [18]: 1.25 | interaction score [19]: -0.993

Binder: DKIAALKAENAALEAKNAALKAKIAALKG [4H2750-AA]
interaction score [20]: -1.55 | interaction score [21]: 1.97 | interaction score [22]: -1.5 | interaction score [23]: -1.78 | interaction score [24]: -0.643 | interaction score [25]: -1.22 | interaction score [26]: -0.91 | interaction score [27]: -0.13 | interaction score [28]: 2.28 | interaction score [29]: 1.13 | interaction score [30]: -1.08 | interaction score [31]: -0.465 | interaction score [32]: -1.79 | interaction score [33]: -2.38 | interaction score [34]: -1.7 | interaction score [35]: -1.33 | interaction score [36]: -1.81 | interaction score [37]: 2.11 | interaction score [38]: 2.05 | interaction score [39]: 1.92 | interaction score [40]: 2.44 | interaction score [41]: 2.33 | interaction score [42]: 2.26 | interaction score [43]: 1.86 | interaction score [44]: 2.06 | interaction score [45]: 2.15 | interaction score [46]: 2.03 | interaction score [47]: 1.56

Binder: DENAQLEQKIAELKQEIAELEWENAQLEQ [4H1347-bA]
interaction score [49]: -0.84 | interaction score [50]: -0.0112 | interaction score [51]: -0.421 | interaction score [52]: -0.56 | interaction score [53]: -0.786 | interaction score [54]: -0.567 | interaction score [55]: 1.92 | interaction score [56]: -0.596

The next lines start with the values.

interaction score [17]: 2.08
Binder: DEIAALEAKIAALKAKNAALKAKIAALKG [Core_IINI-es_EKKK]

interaction score [48]: 2.1
Binder: DENAALEAKNAALKAENAALEAKIAALKG [Core_NNNI-es_EKEK]

interaction score [57]: 1.67
Binder: DEIAALEAENAALEAKNAALKAKNAALKG [Core_INNN-es_EEKK]

interaction score [58]: -0.344 | interaction score [59]: 0.347 | interaction score [60]: 0.126 | interaction score [61]: -1.79 | interaction score [62]: 0.178 | interaction score [63]: -1.28 | interaction score [64]: -2.03 | interaction score [65]: 0.649 | interaction score [66]: -0.478 | interaction score [67]: -0.677
Binder: DKNSQLKEENSQLEEKIQQLKEKIQQLKY [P10mS]

interaction score [68]: 1.51
Binder: DENAALEAKIAALKAENAALEAKNAALKG [Core_NINN-es_EKEK]
